The assay deals with Human Lung Tryptase (human) (UniProt Q15661). In words: cell-based or functional assay.
Sequence of UniProt Q15661 (Q15661 31-275 limits assumed): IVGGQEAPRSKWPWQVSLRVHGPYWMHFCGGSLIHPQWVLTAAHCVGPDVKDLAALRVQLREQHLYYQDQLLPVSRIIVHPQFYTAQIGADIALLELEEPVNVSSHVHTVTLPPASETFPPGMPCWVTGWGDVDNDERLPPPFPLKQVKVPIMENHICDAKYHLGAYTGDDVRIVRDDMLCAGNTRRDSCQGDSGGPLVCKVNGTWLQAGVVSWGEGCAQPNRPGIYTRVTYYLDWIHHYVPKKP

Take “recombinant human Secretory Leukocyte Protease Inhibitor (rhSLPI) (from UniProt P03973 26-132)”: the % Inhibition of tryptase (cleavage of vasoactive intestinal peptide, RP-HPLC; example calculation) is 36.7%.

These data come from patent US7247704.
